According to patent publication US20190328887A1:

Target: human oxytocin receptor (human) (UniProt P30559)
UniProt P30559, sequence (P30559 whole entry): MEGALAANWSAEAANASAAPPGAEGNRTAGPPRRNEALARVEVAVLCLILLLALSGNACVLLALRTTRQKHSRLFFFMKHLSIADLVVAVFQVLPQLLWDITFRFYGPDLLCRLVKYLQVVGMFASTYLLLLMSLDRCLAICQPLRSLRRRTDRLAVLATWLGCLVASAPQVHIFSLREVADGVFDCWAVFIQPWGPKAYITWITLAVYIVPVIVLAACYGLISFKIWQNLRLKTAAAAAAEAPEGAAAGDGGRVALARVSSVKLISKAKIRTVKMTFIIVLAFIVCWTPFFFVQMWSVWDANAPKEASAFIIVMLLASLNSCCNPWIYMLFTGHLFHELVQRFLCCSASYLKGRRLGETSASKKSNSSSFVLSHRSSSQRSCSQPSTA

Oxytocin (peptide)
EC50 Ca2+ production: 42 nM
